For one experiment, the target named is T1, Recombinant CYP26A1 (UniProt O43174).
T1 sequence: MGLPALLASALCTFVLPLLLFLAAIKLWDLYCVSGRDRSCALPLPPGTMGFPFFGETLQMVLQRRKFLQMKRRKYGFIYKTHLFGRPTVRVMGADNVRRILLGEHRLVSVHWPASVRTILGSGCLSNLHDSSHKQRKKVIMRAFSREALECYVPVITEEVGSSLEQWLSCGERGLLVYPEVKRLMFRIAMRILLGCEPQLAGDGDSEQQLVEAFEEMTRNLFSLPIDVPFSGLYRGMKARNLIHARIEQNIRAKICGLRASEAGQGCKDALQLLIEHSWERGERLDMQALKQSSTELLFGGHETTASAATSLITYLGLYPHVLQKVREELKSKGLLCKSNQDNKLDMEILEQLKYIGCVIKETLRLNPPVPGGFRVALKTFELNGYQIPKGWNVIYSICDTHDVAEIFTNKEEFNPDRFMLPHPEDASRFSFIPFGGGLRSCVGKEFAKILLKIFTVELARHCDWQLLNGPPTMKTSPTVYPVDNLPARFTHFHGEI

Another experiment deals with T2, CYP26A1 (Homo sapiens, UniProt O43174).
T2 chain: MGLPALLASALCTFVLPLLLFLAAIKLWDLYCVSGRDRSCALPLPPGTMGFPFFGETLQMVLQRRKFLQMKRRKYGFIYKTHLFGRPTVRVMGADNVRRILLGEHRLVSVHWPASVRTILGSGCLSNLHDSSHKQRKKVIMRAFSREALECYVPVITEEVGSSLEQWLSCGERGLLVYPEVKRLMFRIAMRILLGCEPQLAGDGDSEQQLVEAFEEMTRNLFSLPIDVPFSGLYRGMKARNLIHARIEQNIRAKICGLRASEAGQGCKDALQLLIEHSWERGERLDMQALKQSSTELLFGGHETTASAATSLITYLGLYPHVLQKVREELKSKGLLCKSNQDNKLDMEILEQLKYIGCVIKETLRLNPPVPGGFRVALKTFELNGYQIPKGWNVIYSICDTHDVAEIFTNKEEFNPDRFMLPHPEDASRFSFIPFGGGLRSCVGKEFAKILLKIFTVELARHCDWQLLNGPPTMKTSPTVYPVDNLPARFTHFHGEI
Briefly: enzyme inhibition kinetics.

On to “Cellular retinoic acid binding protein 1 (CRABP1) (from UniProt P29762 1-137) (natural protein)”, for which, in the experiment with Recombinant CYP26A1, the αKm (affinity of holo-CRABP1, with atRA bound, for CYP26A1), from a global fit of the protein-protein interaction model (Equation 3) to 4-OH-atRA formation velocities is 0.99 nM.

B1: CRABP2 (protein)
chain: MPNFSGNWKIIRSENFEELLKVLGVNVMLRKIAVAAASKPAVEIKQEGDTFYIKTSTTVRTTEINFKVGEEFEEQTVDGRPCKSLVKWESENKMVCEQKLLKGEGPKTSWTRELTNDGELILTMTADDVVCTRVYVRE
Regarding B1, the αKm (affinity of holo-CRABP2, with atRA bound, for CYP26A1), from a global fit of the protein-protein interaction model (Equation 3) to 4-OH-atRA formation velocities with Recombinant CYP26A1 worked out at 0.75 nM. The Ki (usually a measure of affinity in units of concentration, obtained from inhibition or displacement) with CYP26A1 turned out to be 0.53 nM.

The values above are taken from publication PMC9105409 (2022).
